# Experimental data as given in publication doi:10.1101/2024.06.14.599074, “A higher order PUF complex is central to regulation of C. elegans germline stem cells” (bioRxiv, 2024).
# Where “and” joins values, the source holds several entries; their conditions need not be identical. Equal entries are not always repeated.
# T1: C. elegans FBF-2 RBD+CT (residues 164–632) (C. elegans, UniProt Q09312 164-632)
# T1 sequence (looked up): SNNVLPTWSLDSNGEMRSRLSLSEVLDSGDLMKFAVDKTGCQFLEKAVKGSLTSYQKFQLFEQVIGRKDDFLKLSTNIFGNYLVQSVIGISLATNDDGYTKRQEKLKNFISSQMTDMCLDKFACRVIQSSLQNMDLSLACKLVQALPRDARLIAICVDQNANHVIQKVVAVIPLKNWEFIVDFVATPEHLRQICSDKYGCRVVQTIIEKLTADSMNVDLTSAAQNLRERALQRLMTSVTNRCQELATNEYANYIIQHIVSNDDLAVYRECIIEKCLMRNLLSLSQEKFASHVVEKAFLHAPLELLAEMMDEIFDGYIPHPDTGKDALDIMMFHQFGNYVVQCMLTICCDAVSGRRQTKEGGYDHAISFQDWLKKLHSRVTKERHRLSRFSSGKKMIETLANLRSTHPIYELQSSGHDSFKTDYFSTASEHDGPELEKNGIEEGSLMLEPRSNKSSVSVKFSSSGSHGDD
# T2: FBF-2 RBD protein (residue 164–575) (C. elegans, UniProt Q09312 164-575)
# T2 construct: Tag cleaved with TEV protease (construct derived from an earlier pGEX6p FBF-2 RBD construct); source: E. coli, purified (as FBF-2 RBD+CT); for SEC-MALS and cryo-EM coexpressed with GST-fused LST-1^19-98 and purified as a complex
# T2 sequence (looked up): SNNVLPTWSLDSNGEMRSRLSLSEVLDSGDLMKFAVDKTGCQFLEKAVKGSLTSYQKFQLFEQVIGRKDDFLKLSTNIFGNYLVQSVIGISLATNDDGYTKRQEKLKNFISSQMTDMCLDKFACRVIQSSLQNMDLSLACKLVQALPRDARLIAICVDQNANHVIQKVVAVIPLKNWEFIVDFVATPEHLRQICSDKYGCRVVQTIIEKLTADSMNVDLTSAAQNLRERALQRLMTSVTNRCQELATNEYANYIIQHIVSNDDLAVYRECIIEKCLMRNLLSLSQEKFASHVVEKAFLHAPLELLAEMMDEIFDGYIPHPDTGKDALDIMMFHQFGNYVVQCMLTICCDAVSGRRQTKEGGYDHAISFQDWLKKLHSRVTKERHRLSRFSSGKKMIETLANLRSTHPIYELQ
# Tests used:
# [1] = target: T1, C. elegans FBF-2 RBD+CT (residues …); assay: cell-based or functional assay
# [2] = target: T1, C. elegans FBF-2 RBD+CT (residues …); assay: ITC; LST-1 (100–400 μM) titrated from the syringe into the cell containing FBF-2 (10–30 μM); 20 °C; 20 mM HEPES pH 7.4, 150 mM NaCl, 0.5 mM TCEP; no RNA; one-site model; two technical replicates; details: both partners purified
# [3] = target: T2, FBF-2 RBD protein (residue 164–575); assay: as above; details: both partners purified
# [4] = target: T1, C. elegans FBF-2 RBD+CT (residues …); assay: SEC-MALS; purified FBF-2 RBD+CT or RBD/LST-1^19-98 protein (~30 μM) with 29-nt gld-1 FBEa-FBEa* RNA; Superdex-200 10/300 GL; 20 mM HEPES pH 7.4, 150 mM NaCl, 2 mM DTT; details: both partners purified
# [5] = target: T2, FBF-2 RBD protein (residue 164–575); assay: as above; details: both partners purified
# [6] = target: T2, FBF-2 RBD protein (residue 164–575); assay: FRET or BRET; 2 μM unlabeled FBF-2 RBD pre-incubated with Cy5-labeled LST-1^19-98 (20, 40, 80 nM), then 20 nM 5′-Cy3-labeled gld-1 FBEa-FBEa* RNA; room temperature; FRET from Cy3 in the RNA to Cy5 in LST-1; details: both partners purified
Binder,EMSA: RNA-binding affinity of FBF-2 RBD+CT for gld-1 FBEa-FBEa* RNA with 10 μM LST-1^19-98 against without LST-1 [1],Kd [2],dH [2],stoichiometry N [2],Kd [3],dH [3],stoichiometry N [3],stoichiometry N [4],stoichiometry N [5],binding result [6]
"LST-1^19-98 (LST-1 residues 19–98, spanning PIM-A and PIM-B) (domain or fragment, C. elegans, UniProt P91820 19-98, looked up, LST-1, C. elegans, residues 19–98 of the N-terminal intrinsically disordered region, with PIM-A and PIM-B; Codon-optimized synthetic cDNA in the pSMT3 vector; tag removed with Ulp1; also called LST-1 peptide (residues 19–98); source: E. coli BL21-CodonPlus (DE3)-RIL, purified (Ni-NTA, heparin, Ni-NTA pass, Superdex 75)) STIAYSKSQHEAPKQLLQLRSEIKPLIPLNQPSNFWESSQDSGVLSSLSSSPQQRSGLRSQKLHLTYIEKNKRVRAMIPQ",4 fold,1100 nM and 1900 nM,-14.8 kcal/mol and -10.8 kcal/mol,0.5 sites and 0.57 sites,480 nM and 520 nM,-33.2 kcal/mol and -37.5 kcal/mol,0.46 sites,–,–,–
"LST-1^19-98 from the GST fusion coexpressed with FBF-2 (domain or fragment, C. elegans, UniProt P91820 19-98, looked up, LST-1, C. elegans, residues 19–98; GST cleaved off with TEV protease; also called GST-LST-1^19-98) STIAYSKSQHEAPKQLLQLRSEIKPLIPLNQPSNFWESSQDSGVLSSLSSSPQQRSGLRSQKLHLTYIEKNKRVRAMIPQ",–,–,–,–,–,–,–,2 FBF-2 per LST-1,2 FBF-2 per LST-1,–
"LST-1^19-98(A^m) (domain or fragment, C. elegans, UniProt P91820 19-98, looked up, LST-1, C. elegans, residues 19–98, PIM-A mutated, PIM-B intact; also called LST-1 A^m; K32A/L35A double mutant in PIM-A; source: E. coli, purified (same protocol as for WT protein)) STIAYSKSQHEAPAQLAQLRSEIKPLIPLNQPSNFWESSQDSGVLSSLSSSPQQRSGLRSQKLHLTYIEKNKRVRAMIPQ",–,3700 nM and 2800 nM,-11.4 kcal/mol and -11.5 kcal/mol,1.02 sites and 0.98 sites,130 nM and 120 nM,-15.3 kcal/mol and -16.5 kcal/mol,1.15 sites and 1.05 sites,–,–,–
"LST-1^19-98(B^m) (domain or fragment, C. elegans, UniProt P91820 19-98, looked up, LST-1, C. elegans, residues 19–98, PIM-B mutated, PIM-A intact; also called LST-1 B^m; K80A/L83A/Y85A triple mutant in PIM-B; source: E. coli, purified (same protocol as for WT protein)) STIAYSKSQHEAPKQLLQLRSEIKPLIPLNQPSNFWESSQDSGVLSSLSSSPQQRSGLRSQALHATAIEKNKRVRAMIPQ",–,24100 nM and 46200 nM,-11.1 kcal/mol and -11.5 kcal/mol,1.06 sites and 0.89 sites,1460 nM and 1540 nM,-12.1 kcal/mol and -12.5 kcal/mol,0.83 sites and 0.86 sites,–,–,–

# Next, values leading:
EMSA: RNA-binding affinity of FBF-2 RBD+CT for gld-1 FBEa-FBEa* RNA with 10 μM LST-1^19-98 against without LST-1 [1],Kd [2],dH [2],stoichiometry N [2],Kd [3],dH [3],stoichiometry N [3],stoichiometry N [4],stoichiometry N [5],binding result [6],Binder
–,–,–,–,–,–,–,–,–,binds,"C74-labeled LST-1^19-98 (S74C, Cy5) (domain or fragment, C. elegans, UniProt P91820 19-98, looked up, Cy5 on C74 via cysteine-maleimide conjugation, LST-1, C. elegans, residues 19–98, cysteine in place of S74, five residues upstream of PIM-B; Probably made like wild-type LST-1^19-98 (His6-SUMO, cleaved); source: purified) STIAYSKSQHEAPKQLLQLRSEIKPLIPLNQPSNFWESSQDSGVLSSLSSSPQQRCGLRSQKLHLTYIEKNKRVRAMIPQ"
–,–,–,–,–,–,–,–,–,binds,"C26-labeled LST-1^19-98 (S26C, Cy5) (domain or fragment, C. elegans, UniProt P91820 19-98, looked up, Cy5 on C26 via cysteine-maleimide conjugation, LST-1, C. elegans, residues 19–98, cysteine in place of S26, five residues upstream of PIM-A; Probably made like wild-type LST-1^19-98 (His6-SUMO, cleaved); source: purified) STIAYSKCQHEAPKQLLQLRSEIKPLIPLNQPSNFWESSQDSGVLSSLSSSPQQRSGLRSQKLHLTYIEKNKRVRAMIPQ"
